From IntAct's records for PubMed 23084749

B1: Protein deacetylase HDAC6 (Homo sapiens), Q9UBN7 (parent)
chain: MTSTGQDSTTTRQRRSRQNPQSPPQDSSVTSKRNIKKGAVPRSIPNLAEVKKKGKMKKLGQAMEEDLIVGLQGMDLNLEAEALAGTGLVLDEQLNEFHCLWDDSFPEGPERLHAIKEQLIQEGLLDRCVSFQARFAEKEELMLVHSLEYIDLMETTQYMNEGELRVLADTYDSVYLHPNSYSCACLASGSVLRLVDAVLGAEIRNGMAIIRPPGHHAQHSLMDGYCMFNHVAVAARYAQQKHRIRRVLIVDWDVHHGQGTQFTFDQDPSVLYFSIHRYEQGRFWPHLKASNWSTTGFGQGQGYTINVPWNQVGMRDADYIAAFLHVLLPVALEFQPQLVLVAAGFDALQGDPKGEMAATPAGFAQLTHLLMGLAGGKLILSLEGGYNLRALAEGVSASLHTLLGDPCPMLESPGAPCRSAQASVSCALEALEPFWEVLVRSTETVERDNMEEDNVEESEEEGPWEPPVLPILTWPVLQSRTGLVYDQNMMNHCNLWDSHHPEVPQRILRIMCRLEELGLAGRCLTLTPRPATEAELLTCHSAEYVGHLRATEKMKTRELHRESSNFDSIYICPSTFACAQLATGAACRLVEAVLSGEVLNGAAVVRPPGHHAEQDAACGFCFFNSVAVAARHAQTISGHALRILIVDWDVHHGNGTQHMFEDDPSVLYVSLHRYDHGTFFPMGDEGASSQIGRAAGTGFTVNVAWNGPRMGDADYLAAWHRLVLPIAYEFNPELVLVSAGFDAARGDPLGGCQVSPEGYAHLTHLLMGLASGRIILILEGGYNLTSISESMAACTRSLLGDPPPLLTLPRPPLSGALASITETIQVHRRYWRSLRVMKVEDREGPSSSKLVTKKAPQPAKPRLAERMTTREKKVLEAGMGKVTSASFGEESTPGQTNSETAVVALTQDQPSEAATGGATLAQTISEAAIGGAMLGQTTSEEAVGGATPDQTTSEETVGGAILDQTTSEDAVGGATLGQTTSEEAVGGATLAQTTSEAAMEGATLDQTTSEEAPGGTELIQTPLASSTDHQTPPTSPVQGTTPQISPSTLIGSLRTLELGSESQGASESQAPGEENLLGEAAGGQDMADSMLMQGSRGLTDQAIFYAVTPLPWCPHLVAVCPIPAAGLDVTQPCGDCGTIQENWVCLSCYQVYCGRYINGHMLQHHGNSGHPLVLSYIDLSAWCYYCQAYVHHQALLDVKNIAHQNKFGEDMPHPH
partner: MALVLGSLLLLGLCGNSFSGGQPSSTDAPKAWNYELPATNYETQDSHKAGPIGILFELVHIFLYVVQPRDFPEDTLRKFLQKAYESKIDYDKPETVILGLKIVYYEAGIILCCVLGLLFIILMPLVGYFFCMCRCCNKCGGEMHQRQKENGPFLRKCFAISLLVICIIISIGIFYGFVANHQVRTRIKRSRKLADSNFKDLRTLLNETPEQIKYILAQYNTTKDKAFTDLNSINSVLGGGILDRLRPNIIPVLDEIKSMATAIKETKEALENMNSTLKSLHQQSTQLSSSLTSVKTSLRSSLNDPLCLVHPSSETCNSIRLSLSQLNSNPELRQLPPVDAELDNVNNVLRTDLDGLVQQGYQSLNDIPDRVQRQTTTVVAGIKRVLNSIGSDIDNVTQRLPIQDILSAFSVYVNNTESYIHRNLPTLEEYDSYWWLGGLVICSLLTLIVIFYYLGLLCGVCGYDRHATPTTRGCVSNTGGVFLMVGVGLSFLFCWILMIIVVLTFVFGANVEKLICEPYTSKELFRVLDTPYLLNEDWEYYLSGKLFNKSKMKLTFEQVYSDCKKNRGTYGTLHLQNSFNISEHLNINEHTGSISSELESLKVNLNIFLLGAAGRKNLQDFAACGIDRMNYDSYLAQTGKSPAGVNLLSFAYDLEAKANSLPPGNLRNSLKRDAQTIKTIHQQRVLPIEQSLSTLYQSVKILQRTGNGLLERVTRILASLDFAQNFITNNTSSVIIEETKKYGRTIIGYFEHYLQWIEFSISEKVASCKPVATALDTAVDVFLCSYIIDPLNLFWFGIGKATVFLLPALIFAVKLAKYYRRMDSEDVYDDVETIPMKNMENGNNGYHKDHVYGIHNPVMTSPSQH

Variants of: B1
Details: with prom1_human PROM1, O43490

| Variant | effect of a mutation on the interaction |
| --- | --- |
| Y570A | with no effect |
| H216A;H611A | with no effect |
| Y570E | disrupting interaction strength |
| S568E | disrupting interaction strength |
| S568A | with no effect |
